The target of test [1] is soluble CD28 (sCD28), human CD28 extracellular domain fused to His6-tagged human IgG1 Fc (human) (UniProt P10747). As to the kind of experiment: SPR, format not stated (sCD28 was among the immobilized ligands). On the technique in general: SPR reads the build-up and loss of mass on a sensor chip optically.
Test [2] concerns the target staphylococcal enterotoxin B (SEB) (Staphylococcus aureus) (UniProt P01552). In words: SPR (BIAcore 3000, 25°C), SEB immobilized on CM5 chip, sB7-2 injected.
The target of test [3] is T1, staphylococcal enterotoxin B (SEB) (Staphylococcus aureus, UniProt P01552 28-266).
T1 sequence: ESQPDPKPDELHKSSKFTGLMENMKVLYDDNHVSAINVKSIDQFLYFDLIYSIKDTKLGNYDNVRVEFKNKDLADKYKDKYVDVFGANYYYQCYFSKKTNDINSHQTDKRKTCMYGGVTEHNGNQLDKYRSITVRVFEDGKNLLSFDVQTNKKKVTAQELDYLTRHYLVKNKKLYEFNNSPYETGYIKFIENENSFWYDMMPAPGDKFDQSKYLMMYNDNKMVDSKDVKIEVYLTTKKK
In words: SPR (BIAcore 3000, 25°C), SEB immobilized on CM5 chip, soluble receptor injected.

Kd data for 3 molecules are collected here from EP2363413A1 (YISSUM RESEARCH DEVELOPMENT COMPANY OF THE HEBREW …, dated 2011).

For orientation: Kd means a measure of binding affinity in units of concentration.

In turn, “anti-CD28 monoclonal antibody MAB342, clone 37407.111 (R&D Systems)” gave a dissociation constant Kd in test [1] of 2 nM.
As to “soluble B7-2 (sB7-2), human B7-2 extracellular domain fused to His6-tagged human IgG1 Fc (from UniProt P42081 20-239) (Fc fusion)”, the Kd in test [2] worked out at 25 nM.

B1: soluble ICOS (sICOS), human ICOS extracellular domain fused to His6-tagged human IgG1 Fc (Fc fusion)
chain (part 1 of 2): EINGSANYEMFIFHNGGVQILCKYPDIVQQFKMQLLKGGQILCDLTKTKGSGNTVSIKSLKFCHSQLSNNSVSFFLYNLDHSHANYYFCNLSIFDPPPFKVTLTGGYLHIYESQLCCQLKF
chain (part 2 of 2): HHHHHH
notes: range 21-141
In test [3], B1 showed an equilibrium dissociation constant (Kd) of 21 nM.
